{"source": "the DeepSol protein solubility set", "experiment": "soluble on expression in E. coli; label from the status in PepcDB or PDB records"}
{"sequence": "MGSDKIHHHHHHMTWRIVHIHQSEKMRLKLDNLVIKKQGDEFTIPLSDISIIVAEGGDTVVTLRLLSALSKYNIALIVCDNHHLPTGIYHSQNGHFRAYKKLQAQLSWAPLQKDKLWQIIIYFKITNQQDVLAMQEKSLSTIQLLSDYREHIELGDRTNREGHAAKVYFNELFGKQFVRLTQQETDAVNAGLNYGYTIFRAQMARIIAGYGLNALIGIFHKNEYNQFNLADDLMEPFRQIVDVWVYMNLREADFLTYQHRLELTNLLNAKIRYGKENCSVTVAMDKFVKGFIRCIEDKDTNQFFCPVVSSLEMEKL", "values": [{"measurement": "soluble on expression in E. coli", "value": "not soluble"}]}
{"sequence": "TAILVTTRDGTRTEIQAEPGLSLMEALRDAGIDELLALCGGCCSCATCHVLVAPAFADRLPALSGDENDLLDSSDHRTPHSRLSCQITINDKLEGLEVEIAPED", "values": [{"measurement": "soluble on expression in E. coli", "value": "soluble"}]}
{"sequence": "MSLEELSLYTLRHVLERSAVLYADQPSLSQLGCEPLTFRDLHDHAEHLALWLRDNGVGTGDRVALLAENSPNWGIAYFAITGMGAIAVPILPEFHADAVQHILRHSEAKAVFVSERLFPKLEEGEGIADSLMCISMETFQSIAQGTTRDMLRELKSKGLREFRKLRDKAKRLANMADAAPAEDDVAAIIYTSGTTGHSKGVVLTHRNIVWDADAVKSIVKLGPGDRMLSILPLSHTYECTLGLVLPVLNGAHVHYMDKPPTARALLPAMAQVRPTAMLSVPLVIEKIFKTALLPKLTGSWLKQRLYAIPFVRRKLHALAGRKLLESFGGALRIFCIGGAGIAPDVERFLREANFPYAIGYGLTETAPLVAGSGPASTRLTSTGFTLDGVDIAIDAPDPATGEGEIIVRGPNVMREYYKAPQITASAFTPEGWFRTGDLGKFDADGYLYIKGRLKNVIIGPSGENIYPEEVEAIIHQSPFVLESLVFQQDGRLVARIHLDAARLDESFGDLPALKQREKIDALLETLRNEVNTKVSTFARLAKVIEQTEPFEKTPTHKIKRYLYVEQEGHHHHHH", "values": [{"measurement": "soluble on expression in E. coli", "value": "soluble"}]}
{"sequence": "MGSDKIHHHHHHVVEQSLSVRNGIRHIVWDWNGTLLDDNHANLAAANHVCEMFGVPPMTLEDWRKIFRRPLVPFYEELLGRPLSDEEWQRLDAAYNSYYQRLLPSCRLADGAVDTLHQWRRAGGTQSLLSMAAHDHLVPVITEFGLVSHFTRVDGRQRTTDADSKAEYLAAHLDAQGIDPATVVLIGDIDDDAHAARMVGAKAVLVATGLMSRERLEATGHPVADSLTEAVQLVHG", "values": [{"measurement": "soluble on expression in E. coli", "value": "not soluble"}]}
{"sequence": "MGSDKIHHHHHHMFLVISVVGSSNIDIVLKVDHFTKPGETQKAIEMNVFPGGKGANQAVTVAKIGEKGCRFVTCIGNDDYSDLLIENYEKLGITGYIRVSLPTGRAFIEVDKTGQNRIIIFPGANAELKKELIDWNTLSESDILLLQNEIPFETTLECAKRFNGIVIFDPAPAQGINEEIFQYLDYLTPNEKEIEALSKDFFGEFLTVEKAAEKFLELGVKNVIVKLGDKGVLLVNKNEKKHFPTFKVKAVDTTAAGDVFNGAFAVALSEGKNPEEAVIFGTAAAAISVTRLGAQSSIPAREEVEAFLKNL", "values": [{"measurement": "soluble on expression in E. coli", "value": "soluble"}]}
{"sequence": "MSLDENKPVLVLGATGKQGGSAARYLLERGWTVRAFVRDPGAPKAKELRELGASLHTGDLEDAGSVRAAMKGAYGVFSIQTPMTPAGVEGEERQGKICADAARDLGVQHYVHSSVGGAERPEGVNWRLSKLAIEQRIQENALRFTFLRPSYFMENLNHDMSPLVMEDGVLTFRRGLGPANTLQMISGPDIGYFAADAFDDPDTFGGAKIELAGDELTGEQIAAAFGRHTGLPARFVSVPIPELHRTGFEWQAISYTWLNGIGYHADIPTLRARFPQLLTLDQWLARTGWTPRDPAEGHHHHHH", "values": [{"measurement": "soluble on expression in E. coli", "value": "soluble"}]}
{"sequence": "MVDTMMNTNTDGVTAVPPIFPLPSTTPNRNNNNELAMLAQKQIVAGLLLQQPTIVQAAVNGTNSQKHLADIDYTNVIQTLQALGTTNLKAFSLLLDPQSQTSQLISEDTRPSASSSPSSTATAVSNSGQSNATSTSSSSTEPEYKPRNVREKVYADGYIMSFDKKSCCGTKEFWRCERKNDCNARMHSDINTREIVRKLHPHNHEKPSPEELAFYEQDFSTLHPNYCHPVKSINRSYMQRKLSRASHVSQALPIAPQQIKAEPMEVDTTNQTIQNFQQNNNLMLLASINAAATAAAAATSAGISPPVVGQKRVSTTVMPITLKSQRTTPKEEEDSSQLMSQEEFRITYELTKKLMEMMKPKTEIGVRWQGDEGSILLFLSHDNGAEENVFFPVVVMNRDEKSLITALEGFTGKRCEGKLALCYSQRVNVLVHEALISNWTHGKLFLVNTDAPALWRLTPVDAFGEPLNHV", "values": [{"measurement": "soluble on expression in E. coli", "value": "not soluble"}]}
{"sequence": "GPGSMTRELHRLYVTEPAPPPSLYILTGAGTKAFCAGGDVIGLTTNNPPGCGREFFYWEYQVDYKASIIPAGQVCLWDGYVLGGGAGLSIGSAYRVASEKACFAMPEVAIGMFPDVGASWFLPRLSVPGLGLYMGLTGHRLRGADLVHLGLATHFVPSAKMGELEQALVSMSDAGDVEAVLDKYTTPTTQLPPCTIAHSISSLASHFDITADLTISSILDACREHAQTDPLAKAAADLMPSFSPTAMTLALELLKRGA", "values": [{"measurement": "soluble on expression in E. coli", "value": "not soluble"}]}
{"sequence": "MGSDKIHHHHHHMKKEDKTPSRLIQLGKIYRLIEQFEEISRIELSKLSGLAPASITSLSRSLIEKRLIMEKTSRNTDNRGRPAIALCVSPFYWQALCATLVEDRFEIILSELDGVIIEQSVFPLQKDDLECLDKFLVKSVKQFLAETHSLARPITFSVTVGGELDKNGYLIKLGCTKFAHLDLKSLFTPYFNIPILIAEYFKTWLLAESTLGNVINCDDVLFLQLDDEINLSVLSEGELLFSREQDKININHLIVPRLNELQALINHDLPEVERYQVQHQVTHRAIAQFIDALYPNRVFSNNSEKMNFLCEQIQLKDKNALRIIEHITDCLAYILMNLVHIFSARRVMLNSSLLQLKDFLLEQLNRKLKSYLVDNISTVSVIAGKYEWNSPIVAASAIKQGIYDGSLLTSLVKQEENIINF", "values": [{"measurement": "soluble on expression in E. coli", "value": "not soluble"}]}
{"sequence": "MIRQRRRALTPEQQQEMGQQAATRMMTYPPVVMAHTVAVFLSFDGELDTQPLIEQLWRAGKRVYLPVLHPFSAGNLLFLNYHPQSELVMNRLKIHEPKLDVRDVLPLSRLDVLITPLVAFDEYGQRLGMGGGFYDRTLQNWQHYKTQPVGYAHDCQLVEKLPVEEWDIPLPAVVTPSKVWEWMGHHHHHHSH", "values": [{"measurement": "soluble on expression in E. coli", "value": "not soluble"}]}
{"sequence": "MSEKWIPEIMTPLKQDIVKMPEIIRQASGIKIFGRKIKSIIFTTDIAIIRNTDAQAVIAVYPFTPHPAITKGIIEAADIPVFSGVGGGLTQGMRSAYMSLFAEAQGSMGVVLNGPTPIETIKMVDEAIDIPIISTVTSIHTPIDEKLAAGVDMINISAGKDTAATVRYFRGKYPELPIIATGGPTESSIHETIIAGANAITYTPPSNGELFSKKMKKYREQEKATDEE", "values": [{"measurement": "soluble on expression in E. coli", "value": "soluble"}]}
{"sequence": "MAHHHHHHMRTPVVGAGVAPLEPAPLEASSAAGEDGGEAGVGDEGTDRERFSKMWMYCLQQMQGHEVGMLMDMMPPDIQELYSDKLSDEYLLDEHDNMDKGVHALRAAQKMVEELTSEQLFHIEEFLAGTDAFNAEANRCHGKAHHPRGDGDNLEEEEEAGGDDDEDLFMHRDEGMGSDEEEWLLEQMIAAGDKTSAAAK", "values": [{"measurement": "soluble on expression in E. coli", "value": "not soluble"}]}
{"sequence": "MTKIAFVFPGQGAQKVGMGQDVAAEYPEAKKIYDDADERLGFSITEIITEGPIELLTKSENAQPALVSTSVAILRALETYGVKADYVAGHSLGEYSALVAGGFLEASDAIYLVRKRGELMEAAVPNGAGAMAAVLGVDRETLKTITEEVTKEGDAVQLANLNCPGQIVISGTTAGVEKAGEKAKESGAKRVLPLAVSGPFHSSLMEPAALAFRDVLAEVKISDGQIPVVNNVDAKETTDKSEISDKLIKQIYSPVLWEDIVEELIKNGVDTFVEIGSGKVLAGLIKKINRDVTVLSAGDAESVKSVAATLKGE", "values": [{"measurement": "soluble on expression in E. coli", "value": "not soluble"}]}
{"sequence": "MFCTLAGYRWLNSGSLLRRLSQRAVRRLPTAPLCHLHNGATESAASNGALRIVDEKVAYRRYATVFERTVQYPDGRHVTYDILGQPAVQSASVLVFPFDTQSKTCYVIREYCPGPNRVLYGFPAGMVETKHESLEAAARAELSEEAHLRCAQLIDLTAQAAVWERSFEVPNTASDAENCLRGFFADKYSRNVCKMYLALNPEPDGHPGSMDAEELIEQVGAVRVPQLEAWLWSGQMTMPHMLLAMCALTYLRQRGMLT", "values": [{"measurement": "soluble on expression in E. coli", "value": "not soluble"}]}
{"sequence": "MKMKLTAAIIAAFVIIMGCAGGPKASKADELDLAIRDTSDYLNDNIPKGNKIIILNIQSDYASLSDYIIDELIANAVNDKIFKVVDRAQLEQIRAELNFQWSGEVDDKSALEIGKFLGAQTIVTGAISQLADRHRMRIRALNVKTAEVQGQYNRNITTSPMITALMKGGKSTNTSYGGKTRSGNSSGTTGGTSGAKTSQPATPEYKIGDTGPAGGLIFYDKKNNRNGWRYLEAAPANTERETFMSGDSPYSLGNKNLVGDGFENTQNMMKSIEKKGGGIGSAPYYCTNLVVNGFNDWYLPSFDEISLMYTNLHANNLGSFKQRDYWHSSEHGVVWGTYSFAKGEKGQHSYAYDNDKRLTRACRRF", "values": [{"measurement": "soluble on expression in E. coli", "value": "not soluble"}]}
{"sequence": "MGSDKIHHHHHHMYLKISHTTEYHYDEPVQYALQRLRLTPVNLPGQTVRNWKTLVDGAAIEVSYDDQFGNRTHLVSLDADRTTLCIEANGEVETEDRAGVFGAHQSYVPLWLYARETPLTKPGKRIRELAKAAGGATELERMHALMAIIHETVRYEQGETQVGTSAEEALERGKGVCQDHAHILISAARTLGLPARYVSGYLMMEDHPQQTASHAWADVHIAGLGWVGFDPANKVCPDDRYVRIASGLCYRDAAPVSGLVHGTGTETLKVAVTVEQQGQSQAQN", "values": [{"measurement": "soluble on expression in E. coli", "value": "not soluble"}]}
{"sequence": "MIDCLVMAGGQGARMGFREKPLLSVCGQPMLLRVLSALRMACRRIAIVYSRHTPGVKRLCLSGALGAVECIEGPGSYVKDLRLGFSHISTPLLVAPADMPFLNPHHLNLFIDRALADGASIVNLSLRGRGLTGLSVFKHHRGWWRDVETNGCWALDVDTWEDFRRAGELCGGECTGEGLRLELLEHHHHHH", "values": [{"measurement": "soluble on expression in E. coli", "value": "not soluble"}]}
{"sequence": "MSLENLQTNFSLVQGSTKKLNGMGDDGSPPAKKMITDIHVNGKTINKVPTVKKEHLDDYGEAPVETDGEHVKRTCTSVPETLHLNPSLKHTLAQFHLSSQSSLGGPAAFSARHSQESMSPTVFLPLPSPQVLPGPLLIPSDSSTELTQTVLEGESISCFQVGGEKRLCLPQVLNSVLREFTLQQINTVCDELYIYCSRCTSDQLHILKVLGILPFNAPSCGLITLTDAQRLCNALLRPRTFPQNGSVLPAKSSLAQLKETGSAFEVEHECLGKCQGLFAPQFYVQPDAPCIQCLECCGMFAPQTFVMHSHRSPDKRTCHWGFESAKWHCYLHVNQKYLGTPEEKKLKIILEEMKEKFSMREGHHHHHH", "values": [{"measurement": "soluble on expression in E. coli", "value": "not soluble"}]}
{"sequence": "MTHVCSVILIRRSFDIYHEQQKISLHNESILLLEKNLADDFAFCSPDTRRLDIDELTVCHYLQNIRQLPRNLGLHSKDRLLINQSPPMPLVTAIFDSFNESGVNSPILSNMLYLSCLSMFSHKKELIPLLFNSISTVSGKVERLISFDIAKRWYLRDIAERMYTSESLIKKKLQDENTCFSKILLASRMSMARRLLELRQIPLHTIAEKCGYSSTSYFINTFRQYYGVTPHQFAQHSPGTFS", "values": [{"measurement": "soluble on expression in E. coli", "value": "not soluble"}]}
{"sequence": "MSDLMQKENIVVMLTKKGFLKRLSQNEYKLQGTGGKGLSSFDLNDGDEIVIALCVNTHDYLFMISNEGKLYLINAYEIKDSSRASKGQNISELINLGDQEEILTIKNSKDLTDDAYLLLTTASGKIARFESTDFKAVKSRGVIVIKLNDKDFVTSAEIVFKDEKVICLSKKGSAFIFNSRDVRLTNRGTQGVCGMKLKEGDLFVKVLSVKENPYLLIVSENGYGKRLNMSKISELKRGATGYTSYKKSDKKAGSVVDAIAVSEDDEILLVSKRSKALRTVAGKVSEQGKDARGIQVLFLDNDSLVSVSKFIK", "values": [{"measurement": "soluble on expression in E. coli", "value": "soluble"}]}
{"sequence": "MGSDKIHHHHHHMNLLKIIDDLQLEKIDQEEFLKPALRRGLFKKASDFSLKAALTSLPFALFAMPRIVQASTQANTQSVTDTLNYALTLEYLEEAFYVQGLAKSGLIDSADMTIFNQIKKHESAHVVFLKNVLGSAANPSPAFDFGTAFDSYANFLATAQALEDTGVRAYKGQAGNLITNKVALTAALQIHSVEARHASEVRRLRMLNGWIGVGEAGATYGAGEDANFPAESNLTQGGVDLSILASADVTMTNIAEAFDEPLDKNTVFGIAQGFIVS", "values": [{"measurement": "soluble on expression in E. coli", "value": "not soluble"}]}
